Data taken from PMC8581553 (Cell reports, 2021).

B1: HA-SNAP-GluK3 (receptor, rat, UniProt P42264 32-919, looked up)
chain: MPHVIRIGGIFEYADGPNAQVMNAEEHAFRFSANIINRNRTLLPNTTLTYDIQRIHFHDSFEATKKACDQLALGVVAIFGPSQGSCTNAVQSICNALEVPHIQLRWKHHPLDNKDTFYVNLYPDYASLSHAILDLVQSLKWRSATVVYDDSTGLIRLQELIMAPSRYNIRLKIRQLPIDSDDSRPLLKEMKRGREFRIIFDCSHTMAAQILKQAMAMGMMTEYYHFIFTTLDLYALDLEPYRYSGVNLTGFRILNVDNAHVSAIVEKWSMERLQAAPRAESGLLDGVMMTDAALLYDAVHIVSVCYQRASQMTVNSLQCHRHKPWRFGGRFMNFIKEAQWEGLTGRIVFNKTSGLRTDFDLDIISLKEDGLEKVGVWSPADGLNITEVAKGRGPNVTDSLTNRSLIVTTLLEEPFVMFRKSDRTLYGNDRFEGYCIDLLKELAHILGFSYEIRLVEDGKYGAQDDKGQWNGMVKELIDHKADLAVAPLTITHVREKAIDFSKPFMTLGVSILYRKPNGTNPSVFSFLNPLSPDIWMYVLLAYLGVSCVLFVIARFSPYEWYDAHPCNPGSEVVENNFTLLNSFWFGMGSLMQQGSELMPKALSTRIIGGIWWFFTLIIISSYTANLAAFLTVERMESPIDSADDLAKQTKIEYGAVKDGATMTFFKKSKISTFEKMWAFMSSKPSALVKNNEEGIQRTLTADYALLMESTTIEYITQRNCNLTQIGGLIDSKGYGIGTPMGSPYRDKITIAILQLQEEDKLHIMKEKWWRGSGCPEEENKEASALGIQKIGGIFIVLAAGLVLSVLVAVGEFIYKLRKTAEREQRSFCSTVADEIRFSLTCQRRLKHKPQPPMMVKTDAVINMHTFNDRRLPGKDSMSCSTSLAPVFP
modifications: SNAP tag labelled with SBG-OG (Oregon Green)

Experiments:
[1] = molecular target: the molecule itself; test: single-molecule pull-down
HA-SNAP-GluK3 = molecular target: B1; test: single-molecule pull-down

Binder | stoichiometry N [1] | stoichiometry N (HA-SNAP-GluK3)
HA-SNAP-GluK2 (receptor, rat, UniProt P42260 32-908, looked up, SNAP tag labelled with SBG-OG (Oregon Green); for smFRET with BG-LD555 and BG-LD655) TTHVLRFGGIFEYVESGPMGAEELAFRFAVNTINRNRTLLPNTTLTYDTQKINLYDSFEASKKACDQLSLGVAAIFGPSHSSSANAVQSICNALGVPHIQTRWKHQVSDNKDSFYVSLYPDFSSLSRAILDLVQFFKWKTVTVVYDDSTGLIRLQELIKAPSRYNLRLKIRQLPADTKDAKPLLKEMKRGKEFHVIFDCSHEMAAGILKQALAMGMMTEYYHYIFTTLDLFALDVEPYRYSGVNMTGFRILNTENTQVSSIIEKWSMERLQAPPKPDSGLLDGFMTTDAALMYDAVHVVSVAVQQFPQMTVSSLQCNRHKPWRFGTRFMSLIKEAHWEGLTGRITFNKTNGLRTDFDLDVISLKEEGLEKIGTWDPASGLNMTESQKGKPANITDSLSNRSLIVTTILEEPYVLFKKSDKPLYGNDRFEGYCIDLLRELSTILGFTYEIRLVEDGKYGAQDDVNGQWNGMVRELIDHKADLAVAPLAITYVREKVIDFSKPFMTLGISILYRKPNGTNPGVFSFLNPLSPDIWMYILLAYLGVSCVLFVIARFSPYEWYNPHPCNPDSDVVENNFTLLNSFWFGVGALMQQGSELMPKALSTRIVGGIWWFFTLIIISSYTANLAAFLTVERMESPIDSADDLAKQTKIEYGAVEDGATMTFFKKSKISTYDKMWAFMSSRRQSVLVKSNEEGIQRVLTSDYAFLMESTTIEFVTQRNCNLTQIGGLIDSKGYGVGTPMGSPYRDKITIAILQLQEEGKLHMMKEKWWRGNGCPEEESKEASALGVQNIGGIFIVLAAGLVLSVFVAVGEFLYKSKKNAQLEKRSFCSAMVEELRMSLKCQRRLKHKPQAPVIVKTEEVINMHTFNDRRLPGKETMA | 4 | 
Halo-GluK5 (receptor, rat, UniProt Q63273 15-979, looked up, Halo tag labelled with CA-Sulfo549 (two-colour) or CA-Sulfo646 (three-colour)) NPSCQVLSSLRMAAILDDQTVCGRGERLALALAREQINGIIEVPAKARVEVDIFELQRDSQYETTDTMCQILPKGVVSVLGPSSSPASASTVSHICGEKEIPHIKVGPEETPRLQYLRFASVSLYPSNEDVSLAVSRILKSFNYPSASLICAKAECLLRLEELVRGFLISKETLSVRMLDDSRDPTPLLKEIRDDKVSTIIIDANASISHLVLRKASELGMTSAFYKYILTTMDFPILHLDGIVEDSSNILGFSMFNTSHPFYPEFVRSLNMSWRENCEASTYPGPALSAALMFDAVHVVVSAVRELNRSQEIGVKPLACTSANIWPHGTSLMNYLRMVEYDGLTGRVEFNSKGQRTNYTLRILEKSRQGHREIGVWYSNRTLAMNATTLDINLSQTLANKTLVVTTILENPYVMRRPNFQALSGNERFEGFCVDMLRELAELLRFRYRLRLVEDGLYGAPEPNGSWTGMVGELINRKADLAVAAFTITAEREKVIDFSKPFMTLGISILYRVHMGRKPGYFSFLDPFSPAVWLFMLLAYLAVSCVLFLAARLSPYEWYNPHPCLRARPHILENQYTLGNSLWFPVGGFMQQGSEIMPRALSTRCVSGVWWAFTLIIISSYTANLAAFLTVQRMEVPVESADDLADQTNIEYGTIHAGSTMTFFQNSRYQTYQRMWNYMQSKQPSVFVKSTEEGIARVLNSRYAFLLESTMNEYHRRLNCNLTQIGGLLDTKGYGIGMPLGSPFRDEITLAILQLQENNRLEILKRKWWEGGRCPKEEDHRAKGLGMENIGGIFVVLICGLIIAVFVAVMEFIWSTRRSAESEEVSVCQEMLQELRHAVSCRKTSRSRRRRRPGGPSRALLSLRAVREMRLSNGKLYSAGAGGDAGAHGGPQRLLDDPGPPGGPRPQAPTPCTHVRVCQECRRIQALRASGAGAPPRGLGTPAEATSPPRPRPGPTGPRELTEHE |  | ≤ 2 GluK5 subunits in a di-heteromer
HA-SNAP-GluK1 (receptor, rat, UniProt P22756 31-949, looked up, SNAP tag labelled with SBG-OG (Oregon Green); for smFRET with BG-LD555 and/or BG-LD655) QTSPQVLRIGGIFETVENEPVNVEELAFKFAVTSINRNRTLMPNTTLTYDIQRINLFDSFEASRRACDQLALGVAALFGPSHSSSVSAVQSICNALEVPHIQTRWKHPSVDSRDLFYINLYPDYAAISRAVLDLVLYYNWKTVTVVYEDSTGLIRLQELIKAPSRYNIKIKIRQLPPANKDAKPLLKEMKKSKEFYVIFDCSHETAAEILKQILFMGMMTEYYHYFFTTLDLFALDLELYRYSGVNMTGFRKLNIDNPHVSSIIEKWSMERLQAPPRPETGLLDGMMTTEAALMYDAVYMVAIASHRASQLTVSSLQCHRHKPCALGPRFMNLIKEARWDGLTGRITFNKTDGLRKDFDLDIISLKEEGTEKASGEVSKHLYKVWKKIGIWNSNSGLNMTDGNRDRSNNITDSLANRTLIVTTILEEPYVMYRKSDKPLYGNDRFEAYCLDLLKELSNILGFLYDVKLVPDGKYGAQNDKGEWNGMVKELIDHRADLAVAPLTITYVREKVIDFSKPFMTLGISILYRKPNGTNPGVFSFLNPLSPDIWMYVLLACLGVSCVLFVIARFTPYEWYNPHPCNPDSDVVENNFTLLNSFWFGVGALMQQGSELMPKALSTRIVGGIWWFFTLIIISSYTANLAAFLTVERMESPIDSADDLAKQTKIEYGAVRDGSTMTFFKKSKISTYEKMWAFMSSRQQSALVKNSDEGIQRVLTTDYALLMESTSIEYVTQRNCNLTQIGGLIDSKGYGVGTPIGSPYRDKITIAILQLQEEGKLHMMKEKWWRGNGCPEEDSKEASALGVENIGGIFIVLAAGLVLSVFVAIGEFLYKSRKNNDVEQKGKSSRLRFYFRNKVRFHGSKKESLGVEKCLSFNAIMEELGISLKNQKKLKKKSRTKGKSSFTSILTCHQRRTQRKETVA | 4 | 
B1 | 4 | 
